Measurements as given in patent US20250376519A1 (JIANGSU HENGRUI PHARMACEUTICALS, published 2025).

T1: human DLL3 (ACRO, DLL3-H52H4) (human, UniProt Q9NYJ7 27-492)
T1 construct: Bought
T1 sequence: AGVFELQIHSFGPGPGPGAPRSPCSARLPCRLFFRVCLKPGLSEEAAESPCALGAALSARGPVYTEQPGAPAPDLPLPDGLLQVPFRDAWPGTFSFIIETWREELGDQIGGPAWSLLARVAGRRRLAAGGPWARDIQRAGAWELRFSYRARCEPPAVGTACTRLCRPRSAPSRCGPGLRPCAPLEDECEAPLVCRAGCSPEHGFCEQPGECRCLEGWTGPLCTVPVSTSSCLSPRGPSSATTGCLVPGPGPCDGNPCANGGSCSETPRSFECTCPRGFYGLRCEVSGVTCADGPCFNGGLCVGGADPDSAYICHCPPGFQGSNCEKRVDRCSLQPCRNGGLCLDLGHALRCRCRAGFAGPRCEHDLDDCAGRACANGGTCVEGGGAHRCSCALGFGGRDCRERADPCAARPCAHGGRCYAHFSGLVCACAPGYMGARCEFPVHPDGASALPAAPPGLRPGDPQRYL

T2: human DLL3 on cells (human, UniProt Q9NYJ7 27-618)
T2 construct: Endogenous on H1184 and SHP77; Cell line is named under assay; also called H1184; DLL3/H82
T2 sequence: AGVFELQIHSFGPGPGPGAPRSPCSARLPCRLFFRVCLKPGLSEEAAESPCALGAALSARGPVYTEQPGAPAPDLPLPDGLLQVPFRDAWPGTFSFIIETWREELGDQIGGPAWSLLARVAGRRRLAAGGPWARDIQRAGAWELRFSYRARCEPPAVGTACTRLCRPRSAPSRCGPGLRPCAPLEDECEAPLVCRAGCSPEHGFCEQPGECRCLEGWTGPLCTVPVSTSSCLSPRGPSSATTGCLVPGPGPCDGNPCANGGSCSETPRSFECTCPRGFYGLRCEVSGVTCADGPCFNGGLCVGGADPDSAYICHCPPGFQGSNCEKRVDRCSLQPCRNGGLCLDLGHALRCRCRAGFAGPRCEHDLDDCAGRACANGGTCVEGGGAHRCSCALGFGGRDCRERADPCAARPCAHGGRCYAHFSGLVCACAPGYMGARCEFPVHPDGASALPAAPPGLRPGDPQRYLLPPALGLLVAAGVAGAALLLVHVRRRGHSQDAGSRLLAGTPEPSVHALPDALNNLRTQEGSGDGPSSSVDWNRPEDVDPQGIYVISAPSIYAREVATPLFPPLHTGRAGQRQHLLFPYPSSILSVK


Tests used:
[1] = target: T1, human DLL3 (ACRO, DLL3-H52H4); assay: SPR Biacore 8K, Ab captured on Protein A
How it was run: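 Antibodies captured on a Protein A chip for 18 s; DLL3 or CD3D&3E antigen flowed 180 s, then 600 s dissociation, with real-time detection. Regeneration used 10 mM glycine-HCl pH 1.5 between cycles. Kinetics were obtained by 1:1 model fitting.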

human DLL3 on cells [2] = target: T2, human DLL3 on cells; assay: flow cytometry, DLL3/H82 cells
Protocol: (§1) The plates were centrifuged at 300 g for 5 min, and the supernatant was removed. Different concentrations of test antibodies were added at 100 μL/well. The plates were incubated in the dark in a refrigerator at 4° C. for 1 h. After 3 centrifugal washes at 300 g, working concentrations of APC anti-human IgG Fc (BioLegend, 410712) or PE F(ab′)2-goat anti-human IgG (invitrogen, H10104) were added. The plates were incubated in the dark in a refrigerator at 4° C. for 40 min. After 3 centrifugal washes at 300 g, the geometric mean fluorescence intensity was measured on an Invitrogen flow cytometer, and the EC50 values for the binding of the antibodies to DLL3-expressing cells were calculated.

human DLL3 on cells [3] = target: T2, human DLL3 on cells; assay: flow cytometry, H1184 cells
Protocol: as §1

Kd [1] [nM]	koff [1] [s⁻¹]	kon [1] [M⁻¹ s⁻¹]	EC50 (human DLL3 on cells [2]) [nM]	Emax (human DLL3 on cells [2])	Emax (human DLL3 on cells [3])	Binder
0.0819	4.26e-05	520000	1.31	4700	–	hu110L1H2 (antibody, human IgG1, kappa, V domains shown) VH: EVQLVQSGAEVKKPGASVKVSCKTSGYTFTDYYMNWVRQAPGQSLEWMGIINPYNGGTSYTQKFKGRVTITVDKSASTAYMELSSLRSEDTAVYYCARHFYDSSYLTYSTMDYWGQGTTVTVSS VL: DIVMTQSPDSLAVSLGERATINCKASENVGIFVSWYQQKPGQSPKLLIYGASNRYTGVPDRFSGSGSATDFTLTISSLQAEDVAVYYCGQSHSYPLTFGQGTKLEIKR
0.141	6.41e-05	454000	1.61	4610	–	hu110L1H5 (antibody, human IgG1, kappa, V domains shown) VH: EVQLVQSGAEVKKPGASVKVSCKTSGYTFTDYYMNWVRQAPGQSLEWMGIINPYTGGTSYTQKFKGRVTITVDKSASTAYMELSSLRSEDTAVYYCARHFYDSSYLTYSTMDYWGQGTTVTVSS VL: DIVMTQSPDSLAVSLGERATINCKASENVGIFVSWYQQKPGQSPKLLIYGASNRYTGVPDRFSGSGSATDFTLTISSLQAEDVAVYYCGQSHSYPLTFGQGTKLEIKR
0.206	8.96e-05	434000	1.71	4670	–	hu110L2H5 (antibody, human IgG1, kappa, V domains shown) VH: EVQLVQSGAEVKKPGASVKVSCKTSGYTFTDYYMNWVRQAPGQSLEWMGIINPYTGGTSYTQKFKGRVTITVDKSASTAYMELSSLRSEDTAVYYCARHFYDSSYLTYSTMDYWGQGTTVTVSS VL: NIVMTQSPKSLAVSLGERATINCKASENVGIFVSWYQQKPGQSPKLLIYGASNRYTGVPDRFSGSGSATDFTLTISSLQAEDVADYYCGQSHSYPLTFGQGTKLEIKR
0.0911	4.8e-05	527000	1.51	4580	–	hu110L1H4 (antibody, human IgG1, kappa, V domains shown) VH: EVQLVQSGAEVKKPGASVKVSCKTSGYTFTDYYMNWVRQAPGQSLEWMGIINPYSGGTSYTQKFKGRVTITVDKSASTAYMELSSLRSEDTAVYYCARHFYDSSYLTYSTMDYWGQGTTVTVSS VL: DIVMTQSPDSLAVSLGERATINCKASENVGIFVSWYQQKPGQSPKLLIYGASNRYTGVPDRFSGSGSATDFTLTISSLQAEDVAVYYCGQSHSYPLTFGQGTKLEIKR
0.167	6.86e-05	411000	1.4	5190	–	hu110L2H6 (antibody, human IgG1, kappa, V domains shown) VH: EVQLVQSGAEVKKPGASVKVSCKTSGYTFTDYYMNWVRQAPGQSLEWMGIINPYNVGTSYTQKFKGRVTITVDKSASTAYMELSSLRSEDTAVYYCARHFYDSSYLTYSTMDYWGQGTTVTVSS VL: NIVMTQSPKSLAVSLGERATINCKASENVGIFVSWYQQKPGQSPKLLIYGASNRYTGVPDRFSGSGSATDFTLTISSLQAEDVADYYCGQSHSYPLTFGQGTKLEIKR
0.117	6.45e-05	550000	1.32	4570	–	hu110L2H3 (antibody, human IgG1, kappa, V domains shown) VH: EVQLVQSGAEVKKPGASVKVSCKTSGYTFTDYYMNWVRQAPGQSLEWMGIINPYQGGTSYTQKFKGRVTITVDKSASTAYMELSSLRSEDTAVYYCARHFYDSSYLTYSTMDYWGQGTTVTVSS VL: NIVMTQSPKSLAVSLGERATINCKASENVGIFVSWYQQKPGQSPKLLIYGASNRYTGVPDRFSGSGSATDFTLTISSLQAEDVADYYCGQSHSYPLTFGQGTKLEIKR
0.12	6.25e-05	521000	1.25	4750	–	hu110L2H2 (antibody, human IgG1, kappa, V domains shown) VH: EVQLVQSGAEVKKPGASVKVSCKTSGYTFTDYYMNWVRQAPGQSLEWMGIINPYNGGTSYTQKFKGRVTITVDKSASTAYMELSSLRSEDTAVYYCARHFYDSSYLTYSTMDYWGQGTTVTVSS VL: NIVMTQSPKSLAVSLGERATINCKASENVGIFVSWYQQKPGQSPKLLIYGASNRYTGVPDRFSGSGSATDFTLTISSLQAEDVADYYCGQSHSYPLTFGQGTKLEIKR
0.115	5.84e-05	509000	1.25	4720	–	hu110L2H1 (antibody, human IgG1, kappa, V domains shown) VH: EVQLVQSGAEVKKPGASVKVSCKASGYTFTDYYMNWVRQAPGQRLEWMGIINPYNGGTSYTQKFKGRVTITVDKSASTAYMELSSLRSEDTAVYYCARHFYDSSYLTYSTMDYWGQGTTVTVSS VL: NIVMTQSPKSLAVSLGERATINCKASENVGIFVSWYQQKPGQSPKLLIYGASNRYTGVPDRFSGSGSATDFTLTISSLQAEDVADYYCGQSHSYPLTFGQGTKLEIKR
0.103	5.11e-05	496000	1.41	4600	–	hu110L2H4 (antibody, human IgG1, kappa, V domains shown) VH: EVQLVQSGAEVKKPGASVKVSCKTSGYTFTDYYMNWVRQAPGQSLEWMGIINPYSGGTSYTQKFKGRVTITVDKSASTAYMELSSLRSEDTAVYYCARHFYDSSYLTYSTMDYWGQGTTVTVSS VL: NIVMTQSPKSLAVSLGERATINCKASENVGIFVSWYQQKPGQSPKLLIYGASNRYTGVPDRFSGSGSATDFTLTISSLQAEDVADYYCGQSHSYPLTFGQGTKLEIKR
0.0843	4.75e-05	564000	1.15	4560	–	hu110L1H3 (antibody, human IgG1, kappa, V domains shown) VH: EVQLVQSGAEVKKPGASVKVSCKTSGYTFTDYYMNWVRQAPGQSLEWMGIINPYQGGTSYTQKFKGRVTITVDKSASTAYMELSSLRSEDTAVYYCARHFYDSSYLTYSTMDYWGQGTTVTVSS VL: DIVMTQSPDSLAVSLGERATINCKASENVGIFVSWYQQKPGQSPKLLIYGASNRYTGVPDRFSGSGSATDFTLTISSLQAEDVAVYYCGQSHSYPLTFGQGTKLEIKR
0.068	4.17e-05	614000	1.15	4470	–	hu110L1H1 (antibody, human IgG1, kappa, V domains shown) VH: EVQLVQSGAEVKKPGASVKVSCKASGYTFTDYYMNWVRQAPGQRLEWMGIINPYNGGTSYTQKFKGRVTITVDKSASTAYMELSSLRSEDTAVYYCARHFYDSSYLTYSTMDYWGQGTTVTVSS VL: DIVMTQSPDSLAVSLGERATINCKASENVGIFVSWYQQKPGQSPKLLIYGASNRYTGVPDRFSGSGSATDFTLTISSLQAEDVAVYYCGQSHSYPLTFGQGTKLEIKR
0.102	5.32e-05	520000	1.66	4620	–	hu110L1H6 (antibody, human IgG1, kappa, V domains shown) VH: EVQLVQSGAEVKKPGASVKVSCKTSGYTFTDYYMNWVRQAPGQSLEWMGIINPYNVGTSYTQKFKGRVTITVDKSASTAYMELSSLRSEDTAVYYCARHFYDSSYLTYSTMDYWGQGTTVTVSS VL: DIVMTQSPDSLAVSLGERATINCKASENVGIFVSWYQQKPGQSPKLLIYGASNRYTGVPDRFSGSGSATDFTLTISSLQAEDVAVYYCGQSHSYPLTFGQGTKLEIKR
0.464	0.000732	1.58e+06	–	–	2350	hu98L3H2 (antibody, human IgG1, kappa, V domains shown) VH: EVQLVESGGGLVQPGGSLRLSCAASGFTFSDYGIHWVRQAPGKGLEWVAYISSGGYTIYYADTVKGRFTISRDNAKNSLYLQMNSLRAEDTAVYYCARGDYEDIFYTMDYWGQGTTVTVSS VL: DIQMTQSPSSLSASVGDRVTITCRASRDITKFLNWYQQKPGGAVKLLIYYTSRLHSGVPSRFSGSGSGTDYTLTISSLQPEDFATYYCQQGNTLPWTFGGGTKVEIKR
